The experiment deals with F-actin. As to the kind of experiment: co-sedimentation; F-actin co-sedimentation of HA-cortactin WT, 8KQ and 8KR; gray values of cortactin in pellets and supernatants.
As to “HA-tagged cortactin (from UniProt Q60598 1-546) (natural protein)”, the ratio of gray value of cortactin in pellets and supernatants was 1.03.

For the substance “HA-tagged non-acetylation-mimetic cortactin (8KR) (from UniProt Q60598 1-546) (natural protein)”, the ratio of gray value of cortactin in pellets and supernatants came to 1.59.

“HA-tagged acetylation-mimetic cortactin (8KQ) (from UniProt Q60598 1-546) (natural protein)”: the ratio of gray value of cortactin in pellets and supernatants stood at 0.781.

The values are drawn from publication PMC6786517.
